Data from US20230357447A1 (JANUX THERAPEUTICS, published 2023).

Key:
[1] = target: T1, anti-CD28 scFv (VH-linker 1-VL) (biotinylated (site not stated)); assay: phage ELISA; biotinylated scFv on neutravidin plate; anti-M13-HRP;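 further: crude clonal phage supernatant added to wells pre-incubated with soluble CD28 protein or only blocking buffer, then washed, bound phage read out with an HRP-linked anti-M13 antibody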
T1 construct: Captured as biotinylated scFv on neutravidin coated plates in the phage ELISA

[2] = target: T1, anti-CD28 scFv (VH-linker 1-VL); assay: phage ELISA; scFv wells pre-incubated with soluble CD28 (competitor);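 further: crude clonal phage supernatants added to wells pretreated with soluble CD28 in blocking buffer, bound phage read via HRP-linked anti-M13 antibody, reference wells got blocking buffer only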
Description: Clonal phage were harvested as crude supernatants and screened via standard enzyme linked immunosorbent assays (ELISAs). […] Prior to the addition of clonal phage, wells were incubated with blocking buffer and CD28 soluble protein or blocking buffer alone. Without washing or aspirating, clonal phage supernatants were then added to the wells and incubated for a short time. Wells were then washed followed by detection of bound phage using a horse radish peroxidase conjugated anti-M13 antibody.

T1 sequence (scFv, as listed by the source): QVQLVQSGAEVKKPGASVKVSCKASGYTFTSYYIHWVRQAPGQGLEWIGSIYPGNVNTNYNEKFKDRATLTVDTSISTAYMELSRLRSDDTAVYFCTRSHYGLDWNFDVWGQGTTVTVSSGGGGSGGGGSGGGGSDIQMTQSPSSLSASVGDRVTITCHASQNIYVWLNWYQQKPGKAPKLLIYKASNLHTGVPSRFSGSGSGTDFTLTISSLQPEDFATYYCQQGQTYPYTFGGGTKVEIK

| Binder | CD28 scFv signal [1] | CD28 scFv signal in presence of CD28 [2] |
| --- | --- | --- |
| MDWCPRDRWVDCFF (on phage (pIII fusion)) [Phage-223 clonal phage peptide] | 1.58 | 0.14 |
| MDWCPRDRWADCFF (on phage (pIII fusion)) [Phage-225 clonal phage peptide] | 0.392 | 0.089 |
| MDWCPRFMWAECFN (on phage (pIII fusion)) [Phage-247 clonal phage peptide] | 2.6 | 0.341 |
| MDWCPRHMWINCFA (on phage (pIII fusion)) [Phage-252 clonal phage peptide] | 0.92 | 0.165 |
| MDWCPKVMWHYCFA (on phage (pIII fusion)) [Phage-250 clonal phage peptide] | 1.14 | 0.252 |
| MVGCATSMWNRCLT (on phage (pIII fusion)) [Phage-253 clonal phage peptide] | 0.77 | 0.746 |
| VPWCQIISGLECLT (on phage (pIII fusion)) [Phage-229 clonal phage peptide] | 0.174 | 0.077 |
| APWCQIISGLECLT (on phage (pIII fusion)) [Phage-230 clonal phage peptide] | 0.169 | 0.078 |
| MDWCPRNLWHACFN (on phage (pIII fusion)) [Phage-259 clonal phage peptide] | 1.57 | 0.112 |
| MDWCPRFMWSECFS (on phage (pIII fusion)) [Phage-251 clonal phage peptide] | 1.01 | 0.137 |
| MDWCPRHLWHECYS (on phage (pIII fusion)) [Phage-241 clonal phage peptide] | 2.58 | 0.374 |
| MDWCPMFLWHECFN (on phage (pIII fusion)) [Phage-309 clonal phage peptide] | 2.38 | 0.591 |
| MDWCPRFLWHECFN (on phage (pIII fusion)) [Phage-257 clonal phage peptide] | 2.59 | 0.351 |
| MDWCPMFLWDECFN (on phage (pIII fusion)) [Phage-318 clonal phage peptide] | 2.29 | 0.203 |
| MDWCPMFMWHECFN (on phage (pIII fusion)) [Phage-261 clonal phage peptide] | 2.23 | 1.04 |
| MDWCPFDLWHVCYN (on phage (pIII fusion)) [Phage-256 clonal phage peptide] | 2.6 | 0.651 |
| MDWCPKHLWTECFA (on phage (pIII fusion)) [Phage-242 clonal phage peptide] | 2.49 | 0.145 |
| VPWCLIISGLDCLN (on phage (pIII fusion)) [Phage-231 clonal phage peptide] | 0.107 | 0.09 |
| MDWCPKHLWNKCFN (on phage (pIII fusion)) [Phage-246 clonal phage peptide] | 1.16 | 0.092 |
| ITWCHVISGLECWN (on phage (pIII fusion)) [Phage-228 clonal phage peptide] | 0.193 | 0.1 |
| MDWCPSDMWAHCYN (on phage (pIII fusion)) [Phage-249 clonal phage peptide] | 1.21 | 0.109 |
| MDWCPPYLWSECFA (on phage (pIII fusion)) [Phage-238 clonal phage peptide] | 2.6 | 0.234 |
| MDWCPRYLWSECFA (on phage (pIII fusion)) [Phage-254 clonal phage peptide] | 2.71 | 0.513 |
| MDWCPRYLWHVCFN (on phage (pIII fusion)) [Phage-239 clonal phage peptide] | 2.6 | 0.409 |
| MDWCPRSLWHVCFN (on phage (pIII fusion)) [Phage-258 clonal phage peptide] | 2.41 | 0.238 |

| Binder | CD28 scFv signal [1] | CD28 scFv signal in presence of CD28 [2] |
| --- | --- | --- |
| MDWCPRYLWHECFF (on phage (pIII fusion)) [Phage-301 clonal phage peptide] | 2.45 | 0.682 |
| MDWCPRYLWHVCFD (on phage (pIII fusion)) [Phage-302 clonal phage peptide] | 2.44 | 0.31 |
| MDWCPRYLWHVCFY (on phage (pIII fusion)) [Phage-291 clonal phage peptide] | 2.5 | 1.14 |
| MDWCPSYLWHECFF (on phage (pIII fusion)) [Phage-237 clonal phage peptide] | 2.61 | 0.447 |
| MDWCPRTLWHVCFN (on phage (pIII fusion)) [Phage-240 clonal phage peptide] | 2.6 | 0.551 |
| MDWCPRHLWSVCFN (on phage (pIII fusion)) [Phage-255 clonal phage peptide] | 2.65 | 0.825 |
| MDWCPRYLWHECFS (on phage (pIII fusion)) [Phage-235 clonal phage peptide] | 2.65 | 0.303 |
| MDWCPRYLWTECFS (on phage (pIII fusion)) [Phage-303 clonal phage peptide] | 2.42 | 0.329 |
| MDWCPRDLWTECFS (on phage (pIII fusion)) [Phage-305 clonal phage peptide] | 2.4 | 0.174 |
| MDWCPRYLWHECFD (on phage (pIII fusion)) [Phage-244 clonal phage peptide] | 2.07 | 0.177 |
| MDWCPRHLWHVCFN (on phage (pIII fusion)) [Phage-264 clonal phage peptide] | 2.67 | 0.636 |
| MDWCPRNLWHLCFA (on phage (pIII fusion)) [Phage-245 clonal phage peptide] | 1.4 | 0.164 |
| MDWCPRDRWIDCFN (on phage (pIII fusion)) [Phage-226 clonal phage peptide] | 0.339 | 0.131 |
| MDWCPRDRWSDCFN (on phage (pIII fusion)) [Phage-227 clonal phage peptide] | 0.102 | 0.074 |
| MDWCARFVGYGCLD (on phage (pIII fusion)) [Phage-232 clonal phage peptide] | 0.065 | 0.074 |
| MDWCPRHLWFECFN (on phage (pIII fusion)) [Phage-293 clonal phage peptide] | 2.49 | 0.171 |
| MDWCPIHLWNECFN (on phage (pIII fusion)) [Phage-314 clonal phage peptide] | 2.35 | 0.157 |
| MDWCPRHLWNECFN (on phage (pIII fusion)) [Phage-283 clonal phage peptide] | 2.65 | 0.393 |
| MDWCPRHLWYECFN (on phage (pIII fusion)) [Phage-243 clonal phage peptide] | 2.41 | 0.167 |
| MDWCPRHLWFECFF (on phage (pIII fusion)) [Phage-300 clonal phage peptide] | 2.45 | 0.479 |
| MDWCPRALWFECFF (on phage (pIII fusion)) [Phage-234 clonal phage peptide] | 2.67 | 0.331 |
| MDWCPRHLWNECFA (on phage (pIII fusion)) [Phage-306 clonal phage peptide] | 2.39 | 0.17 |
| MTWCPTSFWNRCLD (on phage (pIII fusion)) [Phage-233 clonal phage peptide] | 0.392 | 0.405 |
| MDWCPRNMWHHCFD (on phage (pIII fusion)) [Phage-248 clonal phage peptide] | 1.6 | 0.524 |
